Data reported in PMC8439657.

Key:
[1] = target: mTORC1 (wild-type human mTOR, RAPTOR, mLST8), Strep tag removed (human) (UniProt P42345)
[2] = target: mTORC1 (wild-type human mTOR, RAPTOR, mLST8), Strep tag removed (human) (UniProt P42345); remark: listed apart in the source
[3] = target: mTOR^ΔN-mLST8 complex (human) (UniProt P42345)
[4] = target: mTORC1 (wild-type human mTOR, RAPTOR, mLST8), Strep tag removed (human) (UniProt P42345); remark: listed apart in the source
[5] = target: Twin-Strep-tagged activated mTORC1 mutant A1459P (human) (UniProt P42345); assay: SPR; Biacore T200, CM5 chip; Twin-Strep-tagged mTORC1 captured on Strep-Tactin XT; DEPTOR PDZ (305-409) injected 120 s, 300 s dissociation, 1:2 dilution series from 20 µM; 50 mM HEPES pH 7.5, 100 mM NaCl, 1 mM TCEP; equilibrium responses fit to one-site specific binding with a linear non-specific component
[6] = target: Twin-Strep-tagged wild-type mTORC1 (human) (UniProt P42345); assay: as above

| IC50 of inhibition of mTORC1 kinase activity, phosphorylation of GST-S6K1 367-404 peptide (western blot, p-S6K1 Thr389) [1] | IC50 of inhibition of mTORC1 kinase activity, phosphorylation of wild-type 4EBP1 (western blot, p-4EBP1 Thr37/46) [1] | IC50 of inhibition of mTORC1 phosphorylation of the TOS-less 4EBP1 mutant, against wild-type 4EBP1 [2] | IC50 of inhibition of the kinase activity of monomeric mTOR^ΔN-mLST8 [3] | fold decrease of the IC50 of DEPTOR inhibition of 4EBP1 phosphorylation in the presence of RHEB-GTP, against mTORC1 alone [4] | Kd [5] | Kd [6] | Substance |
| --- | --- | --- | --- | --- | --- | --- | --- |
| 51 µM | 14 µM | 2 fold | 0.4 µM | 400 fold | – | – | DEPTOR (DEP-domain containing mTOR-interacting protein), full length, residues 1-409 (from UniProt Q8TB45 1-409) (natural protein) |
| – | – | – | – | – | 0.6 µM | 7 µM | DEPTOR short-linker PDZ, residues 305-409 (from UniProt Q8TB45 305-409) (domain or fragment) |
